According to the supplement of paper PMC10567573:

B1: DCAF4 (parent)
chain: DSHILLCLMGLAETPGCATLLPAS

Variants of: B1
Assay: protein stability index of a GFP-peptide fusion (GPS, HEK-293T) (PSI 1-6); higher = more stable
Details: c terminus: a fixed tail appended
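Note: lentivirally expressed fusions sorted by FACS into six bins by GFP to DsRed ratio, PSI derived from sequencing read proportions per bin multiplied by bin number.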

Variant	protein stability index
A12R	2.39
A12Q	2.74
A12E	2.25
A12H	2.59
A12S	2.37
A12I	2.11
A12D	2.02
A12W	4.01
A12M	2.66
A12N	1.69
A12P	3.88
A12F	3.3
A12C	2.96
A12Y	4
A12L	2.76
A12K	1.92
T19R	1.64
T19P	2.5
T19W	2.05
T19Q	1.43
T19Y	3.13

Variant	protein stability index
T19K	3.24
T19G	2.93
T19F	3.47
T19A	2.22
T19S	2.67
T19L	2.15
T19M	3.1
T19N	2.42
T19D	3.26
T19E	3.24
T19I	2.58
L20C	2.91
L20D	2.36
L20A	3.72
P15E	2.06
P15C	2.61
P15K	1.78
P15Y	2.44
P15N	1.35
P15L	3.33
P15S	2.52

Variant	protein stability index
P15T	2.3
P15F	3.63
P15V	2.59
P15M	2.44
P15W	2.46
P15R	2.66
P15D	2.56
P15G	2.54
P15I	2.35
P15A	3.15
E13V	4.1
E13L	2.42
E13C	2.88
E13S	3.26
E13A	3.31
E13Y	3.33
E13H	2.77
E13N	2.83
E13F	2.49
E13K	2.59
E13G	1.88

Variant	protein stability index
E13I	4.29
E13Q	2.36
E13M	3.96
E13P	2
E13T	2.89
E13D	3.06
T14S	2.47
T14L	3.09
T14P	2.53
T14V	2.66
T14R	2.05
T14C	2.24
T14H	3.66
T14N	3.05
T14E	2.95
T14D	1.92
T14A	2.93
T14Y	3.79
T14M	2.26
T14G	2.77
